Measurements: PMC9482650, “Quantitative fragmentomics allow affinity mapping of interactomes” (Nature Communications, 2022)

T1: DLG3_1, Q92796
T1 sequence (Q92796 125-227, limits assumed, looked up): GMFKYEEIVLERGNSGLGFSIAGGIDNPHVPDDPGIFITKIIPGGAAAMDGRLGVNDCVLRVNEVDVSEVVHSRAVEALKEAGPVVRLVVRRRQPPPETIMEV

T2: DLG3_2, Q92796
T2 sequence (Q92796 221-321, limits assumed, looked up): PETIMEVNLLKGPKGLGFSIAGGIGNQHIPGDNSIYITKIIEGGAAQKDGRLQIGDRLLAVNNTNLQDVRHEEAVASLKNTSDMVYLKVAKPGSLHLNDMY

T3: FRMPD1, Q5SYB0
T3 sequence (Q5SYB0 52-145, limits assumed, looked up): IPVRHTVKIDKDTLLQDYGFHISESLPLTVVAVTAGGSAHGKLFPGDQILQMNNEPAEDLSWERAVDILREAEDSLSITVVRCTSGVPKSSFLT

T4: GRIP1_5, Q9Y3R0
T4 sequence (Q9Y3R0 568-668, limits assumed, looked up): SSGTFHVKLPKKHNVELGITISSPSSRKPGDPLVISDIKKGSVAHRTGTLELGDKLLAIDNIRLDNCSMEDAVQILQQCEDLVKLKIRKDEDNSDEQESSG

T5: LNX2_2, Q8N448
T5 sequence (Q8N448 334-432, limits assumed, looked up): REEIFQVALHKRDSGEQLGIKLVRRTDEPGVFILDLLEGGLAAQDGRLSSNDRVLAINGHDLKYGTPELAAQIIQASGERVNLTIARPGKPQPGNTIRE

T6: MPDZ_12, O75970
T6 sequence (O75970 1857-1958, limits assumed, looked up): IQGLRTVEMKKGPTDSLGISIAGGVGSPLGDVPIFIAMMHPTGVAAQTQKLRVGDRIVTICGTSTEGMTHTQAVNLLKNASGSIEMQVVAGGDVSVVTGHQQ

T7: PARD3B_1, Q8TEW8
T7 sequence (Q8TEW8 196-299, limits assumed, looked up): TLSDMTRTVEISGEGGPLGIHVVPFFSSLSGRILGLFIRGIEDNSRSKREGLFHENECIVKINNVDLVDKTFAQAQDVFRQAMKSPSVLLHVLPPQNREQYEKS

T8: RAPGEF6, Q8TEU7
T8 sequence (Q8TEU7 525-625, limits assumed, looked up): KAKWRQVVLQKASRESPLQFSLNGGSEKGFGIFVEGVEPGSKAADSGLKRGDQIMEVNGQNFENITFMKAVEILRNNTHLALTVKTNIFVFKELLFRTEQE

T9: SNTB1, Q13884
T9 sequence (Q13884 107-205, limits assumed, looked up): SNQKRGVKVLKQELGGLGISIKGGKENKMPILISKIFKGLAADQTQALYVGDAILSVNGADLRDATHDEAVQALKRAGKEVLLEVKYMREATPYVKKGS

T10: TX1BP3, O14907
T10 sequence (O14907 10-122, limits assumed, looked up): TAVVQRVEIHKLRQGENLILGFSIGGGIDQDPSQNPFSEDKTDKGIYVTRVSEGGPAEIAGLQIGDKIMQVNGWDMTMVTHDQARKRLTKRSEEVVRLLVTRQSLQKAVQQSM


What was measured:
Experiment in all cases: holdup assay
Design in all cases: key: below the threshold = too weak to quantify, mostly under pKd 3.1 to 4
Settings in all cases: plain residues with an end cap or a label only (N-terminal biotin on a linker: ado-ado)
[1] = target: T1, DLG3_1, Q92796
[2] = target: T2, DLG3_2, Q92796
[3] = target: DLG4_1, P78352
DLG4_1, P78352, sequence (P78352 62-152): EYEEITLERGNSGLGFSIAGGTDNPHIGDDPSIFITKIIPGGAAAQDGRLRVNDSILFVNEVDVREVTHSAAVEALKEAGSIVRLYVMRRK

[4] = target: T3, FRMPD1, Q5SYB0
[5] = target: FRMPD2_1, Q68DX3
FRMPD2_1, Q68DX3, sequence (Q68DX3 770-861): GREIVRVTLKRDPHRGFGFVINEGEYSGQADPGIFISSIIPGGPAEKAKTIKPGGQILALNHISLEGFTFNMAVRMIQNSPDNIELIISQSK

[6] = target: FRMPD2_2, Q68DX3
FRMPD2_2, Q68DX3, sequence (Q68DX3 944-1038): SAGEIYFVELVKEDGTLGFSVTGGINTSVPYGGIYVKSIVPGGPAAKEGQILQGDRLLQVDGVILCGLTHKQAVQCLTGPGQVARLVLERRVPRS

[7] = target: GOPC, Q9HD26
[8] = target: GORASP2, Q9H8Y8
[9] = target: T4, GRIP1_5, Q9Y3R0
[10] = target: HTRA2, O43464
HTRA2, O43464, sequence (O43464 355-458): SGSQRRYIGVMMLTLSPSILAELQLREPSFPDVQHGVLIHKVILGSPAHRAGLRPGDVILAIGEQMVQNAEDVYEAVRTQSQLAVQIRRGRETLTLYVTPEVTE

[11] = target: Inadl_3, Q8NI35
Inadl_3, Q8NI35, sequence (Q8NI35 359-469): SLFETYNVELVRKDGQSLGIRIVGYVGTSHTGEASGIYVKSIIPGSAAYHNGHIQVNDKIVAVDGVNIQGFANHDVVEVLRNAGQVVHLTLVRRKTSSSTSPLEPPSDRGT

[12] = target: Inadl_6, Q8NI35
Inadl_6, Q8NI35, sequence (Q8NI35 1058-1167): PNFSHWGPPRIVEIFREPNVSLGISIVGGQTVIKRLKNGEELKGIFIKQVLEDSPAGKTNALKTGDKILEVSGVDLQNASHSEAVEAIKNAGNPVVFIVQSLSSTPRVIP

[13] = target: Inadl_8, Q8NI35
Inadl_8, Q8NI35, sequence (Q8NI35 1425-1530): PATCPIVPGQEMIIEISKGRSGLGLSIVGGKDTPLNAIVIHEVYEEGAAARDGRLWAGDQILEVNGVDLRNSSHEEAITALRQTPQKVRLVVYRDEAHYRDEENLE

[14] = target: T5, LNX2_2, Q8N448
[15] = target: MAGI2_4, Q86UL8
MAGI2_4, Q86UL8, sequence (Q86UL8 772-865): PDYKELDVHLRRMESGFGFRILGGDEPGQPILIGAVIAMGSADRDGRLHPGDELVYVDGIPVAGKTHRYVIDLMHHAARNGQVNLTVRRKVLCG

[16] = target: MAGI2_5, Q86UL8
MAGI2_5, Q86UL8, sequence (Q86UL8 915-1017): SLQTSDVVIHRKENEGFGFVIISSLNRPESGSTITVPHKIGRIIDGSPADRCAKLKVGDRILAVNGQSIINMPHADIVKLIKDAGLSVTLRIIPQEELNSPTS

[17] = target: MAST1, Q9Y2H9
MAST1, Q9Y2H9, sequence (Q9Y2H9 962-1065): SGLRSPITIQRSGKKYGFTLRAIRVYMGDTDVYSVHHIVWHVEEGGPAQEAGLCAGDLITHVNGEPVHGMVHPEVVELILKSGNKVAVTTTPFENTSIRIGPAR

[18] = target: MAST2, Q6P0Q8
MAST2, Q6P0Q8, sequence (Q6P0Q8 1099-1202): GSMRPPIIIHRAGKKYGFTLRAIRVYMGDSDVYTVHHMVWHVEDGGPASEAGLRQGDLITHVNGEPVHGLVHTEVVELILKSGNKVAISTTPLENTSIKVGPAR

[19] = target: T6, MPDZ_12, O75970
[20] = target: T7, PARD3B_1, Q8TEW8
[21] = target: PICK1, Q9NRD5
PICK1, Q9NRD5, sequence (Q9NRD5 17-115): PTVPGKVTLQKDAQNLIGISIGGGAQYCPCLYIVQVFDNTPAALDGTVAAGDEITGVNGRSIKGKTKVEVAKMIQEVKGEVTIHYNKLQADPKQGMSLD

[22] = target: PTPN3, P26045
PTPN3, P26045, sequence (P26045 505-587): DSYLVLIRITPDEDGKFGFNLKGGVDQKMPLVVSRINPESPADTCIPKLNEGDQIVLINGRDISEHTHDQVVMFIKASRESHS

[23] = target: T8, RAPGEF6, Q8TEU7
[24] = target: SCRIB_3, Q14160
SCRIB_3, Q14160, sequence (Q14160 999-1103): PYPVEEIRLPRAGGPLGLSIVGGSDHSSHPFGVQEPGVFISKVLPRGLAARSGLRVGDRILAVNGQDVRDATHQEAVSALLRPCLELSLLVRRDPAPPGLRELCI

[25] = target: T9, SNTB1, Q13884
[26] = target: TJP2_1, Q9UDY2
TJP2_1, Q9UDY2, sequence (Q9UDY2 24-128): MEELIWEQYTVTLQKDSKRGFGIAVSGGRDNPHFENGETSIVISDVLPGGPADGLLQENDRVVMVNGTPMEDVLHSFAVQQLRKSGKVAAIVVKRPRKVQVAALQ

[27] = target: T10, TX1BP3, O14907

Binder | pKd [1] | pKd [2] | pKd [3] | pKd [4] | pKd [5] | pKd [6] | pKd [7] | pKd [8] | pKd [9] | pKd [10] | pKd [11] | pKd [12] | pKd [13] | pKd [14] | pKd [15] | pKd [16] | pKd [17] | pKd [18] | pKd [19] | pKd [20] | further results
DHLGGGGESM [TNRC6A, Q8NDV7] | below the threshold | below the threshold | below the threshold | below the threshold | below the threshold | below the threshold | below the threshold | below the threshold | below the threshold | below the threshold | below the threshold | below the threshold | below the threshold | below the threshold | below the threshold | below the threshold | 3.91 | 3.62 | below the threshold | 3.59 | pKd [21]: below the threshold; pKd [22]: 3.7; pKd [23]: below the threshold; pKd [24]: below the threshold; pKd [25]: below the threshold; pKd [26]: below the threshold; pKd [27]: below the threshold
REKKFFCTIL [GNG4, P50150] | 3.65 | 4.13 | 4.06 | below the threshold | 3.88 | below the threshold | 5.18 | 5.05 | below the threshold | 4.49 | 4.67 | 4.22 | 4.52 | 4.06 | 4.26 | 4.86 | 5.2 | 5.62 | 3.62 | 5 | pKd [21]: below the threshold; pKd [22]: 4.47; pKd [23]: below the threshold; pKd [24]: 4.91; pKd [25]: 4.43; pKd [26]: 4.93; pKd [27]: 5.29
ALPLPQSSTC [IGF1R, P08069] | below the threshold | 4.22 | below the threshold | below the threshold | below the threshold | below the threshold | 3.55 | below the threshold | below the threshold | below the threshold | below the threshold | below the threshold | 3.66 | 3.55 | below the threshold | below the threshold | below the threshold | 4.31 | below the threshold | below the threshold | pKd [21]: below the threshold; pKd [22]: below the threshold; pKd [23]: below the threshold; pKd [24]: below the threshold; pKd [25]: below the threshold; pKd [26]: below the threshold; pKd [27]: below the threshold
IPGKEFDTPL [PLCB1, Q9NQ66] | below the threshold | below the threshold | 3.51 | below the threshold | below the threshold | below the threshold | below the threshold | below the threshold | below the threshold | below the threshold | below the threshold | below the threshold | below the threshold | below the threshold | below the threshold | below the threshold | 4.31 | 4.95 | below the threshold | below the threshold | pKd [21]: below the threshold; pKd [22]: 4.82; pKd [23]: below the threshold; pKd [24]: 4.3; pKd [25]: 3.96; pKd [26]: below the threshold; pKd [27]: 3.87
